Earlier results in publication PMC11264262.

Tests used:
Glu73 = Glu73 (UniProt position 107, IFSNREGKLPG); conditions: folded protein
His200 = His200 (UniProt position 200, RKGTVHDTALT)

| Substance | pKa (Glu73) | pKa (His200) |
| --- | --- | --- |
| Barnase (Bacillus amyloliquefaciens (inferred; organism not stated in the article)) | 2.1 | – |
| Homoprotocatechuate 2,3-dioxygenase (HPCD) (Brevibacterium fuscum (inferred; organism not stated in the article)) | – | ca. 7.65 |
